Experiments:
[1] = target: Recombinant human Fc gamma receptor IIa, CD32a 131H (human) (UniProt P12318)
[2] = target: Recombinant human Fc gamma receptor IIa, CD32a 131R (human) (UniProt P12318)
[3] = target: Recombinant human Fc gamma receptor IIb/c, CD32b/c (human) (UniProt P31994)
[4] = target: Recombinant human Fc gamma receptor IIIb, CD16b (human) (UniProt O75015)
[5] = target: Recombinant human Fc gamma receptor IIIa, CD16a 158V (human) (UniProt P08637)
[6] = target: Recombinant human Fc gamma receptor I, CD64 (human) (UniProt P12314)
[7] = target: CD20 Lipoparticles (UniProt P11836)
CD20 Lipoparticles, sequence (P11836 whole entry): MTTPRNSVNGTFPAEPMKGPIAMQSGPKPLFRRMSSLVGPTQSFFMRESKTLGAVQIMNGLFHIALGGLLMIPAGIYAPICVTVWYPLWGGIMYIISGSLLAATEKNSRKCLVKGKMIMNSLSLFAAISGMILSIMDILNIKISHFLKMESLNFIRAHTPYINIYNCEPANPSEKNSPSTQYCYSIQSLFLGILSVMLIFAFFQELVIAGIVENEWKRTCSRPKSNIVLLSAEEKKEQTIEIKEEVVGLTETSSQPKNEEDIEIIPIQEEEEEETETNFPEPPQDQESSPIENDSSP

Recombinant human Fc gamma receptor IIa, CD32a 131R (human), sequence (P12318 36-218 H167R): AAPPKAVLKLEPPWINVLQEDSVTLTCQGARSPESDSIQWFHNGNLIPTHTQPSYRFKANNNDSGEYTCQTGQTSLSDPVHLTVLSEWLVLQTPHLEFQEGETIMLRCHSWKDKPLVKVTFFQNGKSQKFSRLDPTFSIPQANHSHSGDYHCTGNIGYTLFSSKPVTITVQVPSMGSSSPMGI
Recombinant human Fc gamma receptor IIIb, CD16b (human), sequence (O75015 17-200 limits assumed): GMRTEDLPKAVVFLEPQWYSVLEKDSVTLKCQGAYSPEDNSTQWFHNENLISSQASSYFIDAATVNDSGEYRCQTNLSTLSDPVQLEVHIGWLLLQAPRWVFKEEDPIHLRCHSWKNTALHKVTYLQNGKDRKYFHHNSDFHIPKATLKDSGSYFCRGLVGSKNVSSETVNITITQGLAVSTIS
Recombinant human Fc gamma receptor IIb/c, CD32b/c (human), sequence (P31994 46-217): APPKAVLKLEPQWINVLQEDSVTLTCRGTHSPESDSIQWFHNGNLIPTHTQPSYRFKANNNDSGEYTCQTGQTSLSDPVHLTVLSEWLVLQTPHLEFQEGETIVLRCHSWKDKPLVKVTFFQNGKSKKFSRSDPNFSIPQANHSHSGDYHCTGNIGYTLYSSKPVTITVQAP
Recombinant human Fc gamma receptor I, CD64 (human), sequence (P12314 16-288 limits assumed): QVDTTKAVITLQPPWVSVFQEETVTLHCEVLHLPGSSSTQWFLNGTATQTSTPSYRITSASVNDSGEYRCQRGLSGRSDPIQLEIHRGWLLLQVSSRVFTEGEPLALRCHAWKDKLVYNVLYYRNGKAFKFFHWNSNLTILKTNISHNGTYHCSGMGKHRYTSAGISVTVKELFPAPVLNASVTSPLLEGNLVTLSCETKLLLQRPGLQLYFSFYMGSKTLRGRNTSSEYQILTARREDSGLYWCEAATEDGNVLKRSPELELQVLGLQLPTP
Recombinant human Fc gamma receptor IIIa, CD16a 158V (human), sequence (P08637 17-208 F176V limits assumed): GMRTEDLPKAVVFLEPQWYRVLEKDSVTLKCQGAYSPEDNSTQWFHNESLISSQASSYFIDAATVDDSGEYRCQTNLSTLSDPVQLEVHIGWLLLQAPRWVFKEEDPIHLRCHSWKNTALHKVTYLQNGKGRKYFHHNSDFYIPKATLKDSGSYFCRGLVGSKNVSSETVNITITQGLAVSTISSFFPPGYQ
Recombinant human Fc gamma receptor IIa, CD32a 131H (human), sequence (P12318 36-218): as the sequence (P12318 36-218 H167R) above, with R132H counted along it

Kd [1]: 892 nM
Kd [2]: 1250 nM
Kd [3]: 1520 nM
Kd [4]: 1530 nM
Kd [5]: 715 nM
Kd [6]: 52.8 nM
Kd [7]: < 0.001 nM
Substance: Rituxan (antibody)
